T1: EsCas13d, nuclease-dead (Eubacterium siraeum, UniProt B0MS50, R295A;H300A;R849A;H854A)
T1 sequence: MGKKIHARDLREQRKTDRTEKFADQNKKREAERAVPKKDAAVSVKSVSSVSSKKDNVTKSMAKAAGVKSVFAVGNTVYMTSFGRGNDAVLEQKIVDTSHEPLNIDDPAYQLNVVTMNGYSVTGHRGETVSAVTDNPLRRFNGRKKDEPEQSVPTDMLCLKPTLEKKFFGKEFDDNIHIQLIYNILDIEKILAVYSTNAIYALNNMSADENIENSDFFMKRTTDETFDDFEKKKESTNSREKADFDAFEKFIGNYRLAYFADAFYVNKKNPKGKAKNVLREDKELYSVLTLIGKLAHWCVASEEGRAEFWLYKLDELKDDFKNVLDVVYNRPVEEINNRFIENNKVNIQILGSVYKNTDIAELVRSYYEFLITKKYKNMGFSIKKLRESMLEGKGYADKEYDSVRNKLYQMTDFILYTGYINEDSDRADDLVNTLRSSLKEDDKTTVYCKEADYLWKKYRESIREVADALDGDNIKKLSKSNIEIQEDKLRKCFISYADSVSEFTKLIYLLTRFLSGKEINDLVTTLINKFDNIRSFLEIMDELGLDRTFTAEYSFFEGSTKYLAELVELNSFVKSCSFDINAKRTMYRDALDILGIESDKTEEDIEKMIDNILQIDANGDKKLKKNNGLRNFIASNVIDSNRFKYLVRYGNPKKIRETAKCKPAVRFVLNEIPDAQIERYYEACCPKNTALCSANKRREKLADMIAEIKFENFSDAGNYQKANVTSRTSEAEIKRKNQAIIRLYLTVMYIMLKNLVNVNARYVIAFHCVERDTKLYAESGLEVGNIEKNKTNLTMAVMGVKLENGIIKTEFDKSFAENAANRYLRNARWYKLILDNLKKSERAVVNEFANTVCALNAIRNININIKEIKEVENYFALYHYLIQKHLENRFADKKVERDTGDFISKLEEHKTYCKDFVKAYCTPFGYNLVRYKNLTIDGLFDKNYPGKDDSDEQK

B1: target 1 insC 3' of 15,insC 3' of 1 (mixed)
RNA 1: CACCCGUGCAAAAAUGCAGGGGUCUAAAACUGAGCGGAUAACCUCUCUAUGG
RNA 2: GGGAAUGGAUCCACAUCUACGAAUUCGUACCAUAGAGCAGGUUAUCCGCUCACCCGAGAUCGGAAGAGCACACGU
B2: target 1 A14C,C21U (mixed)
RNA 1: CACCCGUGCAAAAAUGCAGGGGUCUAAAACUGAGCGGAUAACCUCUCUAUGG
RNA 2: GGGAAUGGAUCCACAUCUACGAAUUCGUACUAUAGAGCGGUUAUCCGCUCACCGAGAUCGGAAGAGCACACGU
B3: target 1 insC 3' of 8,insU 3' of 1 (mixed)
RNA 1: CACCCGUGCAAAAAUGCAGGGGUCUAAAACUGAGCGGAUAACCUCUCUAUGG
RNA 2: GGGAAUGGAUCCACAUCUACGAAUUCGUACCAUAGAGAGGUUAUCCCGCUCAUCCGAGAUCGGAAGAGCACACGU
B4: target 1 insC 3' of 9,insG 3' of 2 (mixed)
RNA 1: CACCCGUGCAAAAAUGCAGGGGUCUAAAACUGAGCGGAUAACCUCUCUAUGG
RNA 2: GGGAAUGGAUCCACAUCUACGAAUUCGUACCAUAGAGAGGUUACUCCGCUCGACCGAGAUCGGAAGAGCACACGU
B5: target 1 C6U,G12U (mixed)
RNA 1: CACCCGUGCAAAAAUGCAGGGGUCUAAAACUGAGCGGAUAACCUCUCUAUGG
RNA 2: GGGAAUGGAUCCACAUCUACGAAUUCGUACCAUAGAGAGUUUAUCUGCUCACCGAGAUCGGAAGAGCACACGU
B6: target 1 C7U,A18U (mixed)
RNA 1: CACCCGUGCAAAAAUGCAGGGGUCUAAAACUGAGCGGAUAACCUCUCUAUGG
RNA 2: GGGAAUGGAUCCACAUCUACGAAUUCGUACCAUUGAGAGGUUAUUCGCUCACCGAGAUCGGAAGAGCACACGU
B7: target 1 G17C,C21A (mixed)
RNA 1: CACCCGUGCAAAAAUGCAGGGGUCUAAAACUGAGCGGAUAACCUCUCUAUGG
RNA 2: GGGAAUGGAUCCACAUCUACGAAUUCGUACAAUACAGAGGUUAUCCGCUCACCGAGAUCGGAAGAGCACACGU
B8: target 1 insC 3' of 8,insC 3' of 1 (mixed)
RNA 1: CACCCGUGCAAAAAUGCAGGGGUCUAAAACUGAGCGGAUAACCUCUCUAUGG
RNA 2: GGGAAUGGAUCCACAUCUACGAAUUCGUACCAUAGAGAGGUUAUCCCGCUCACCCGAGAUCGGAAGAGCACACGU
B9: target 1 A1G,G17U (mixed)
RNA 1: CACCCGUGCAAAAAUGCAGGGGUCUAAAACUGAGCGGAUAACCUCUCUAUGG
RNA 2: GGGAAUGGAUCCACAUCUACGAAUUCGUACCAUAUAGAGGUUAUCCGCUCGCCGAGAUCGGAAGAGCACACGU
B10: target 1 G5A,C21U (mixed)
RNA 1: CACCCGUGCAAAAAUGCAGGGGUCUAAAACUGAGCGGAUAACCUCUCUAUGG
RNA 2: GGGAAUGGAUCCACAUCUACGAAUUCGUACUAUAGAGAGGUUAUCCACUCACCGAGAUCGGAAGAGCACACGU
B11: target 1 insC 3' of 8,insA 3' of 2 (mixed)
RNA 1: CACCCGUGCAAAAAUGCAGGGGUCUAAAACUGAGCGGAUAACCUCUCUAUGG
RNA 2: GGGAAUGGAUCCACAUCUACGAAUUCGUACCAUAGAGAGGUUAUCCCGCUCAACCGAGAUCGGAAGAGCACACGU
B12: target 1 insC 3' of 15,insU 3' of 1 (mixed)
RNA 1: CACCCGUGCAAAAAUGCAGGGGUCUAAAACUGAGCGGAUAACCUCUCUAUGG
RNA 2: GGGAAUGGAUCCACAUCUACGAAUUCGUACCAUAGAGCAGGUUAUCCGCUCAUCCGAGAUCGGAAGAGCACACGU
B13: target 1 insC 3' of 8,insG 3' of 1 (mixed)
RNA 1: CACCCGUGCAAAAAUGCAGGGGUCUAAAACUGAGCGGAUAACCUCUCUAUGG
RNA 2: GGGAAUGGAUCCACAUCUACGAAUUCGUACCAUAGAGAGGUUAUCCCGCUCAGCCGAGAUCGGAAGAGCACACGU
B14: target 1 U10A,C21U (mixed)
RNA 1: CACCCGUGCAAAAAUGCAGGGGUCUAAAACUGAGCGGAUAACCUCUCUAUGG
RNA 2: GGGAAUGGAUCCACAUCUACGAAUUCGUACUAUAGAGAGGUAAUCCGCUCACCGAGAUCGGAAGAGCACACGU
B15: target 1 C7U,G13U (mixed)
RNA 1: CACCCGUGCAAAAAUGCAGGGGUCUAAAACUGAGCGGAUAACCUCUCUAUGG
RNA 2: GGGAAUGGAUCCACAUCUACGAAUUCGUACCAUAGAGAUGUUAUUCGCUCACCGAGAUCGGAAGAGCACACGU
B16: target 1 C7G,A18U (mixed)
RNA 1: CACCCGUGCAAAAAUGCAGGGGUCUAAAACUGAGCGGAUAACCUCUCUAUGG
RNA 2: GGGAAUGGAUCCACAUCUACGAAUUCGUACCAUUGAGAGGUUAUGCGCUCACCGAGAUCGGAAGAGCACACGU
B17: target 1 insC 3' of 20,insC 3' of 13 (mixed)
RNA 1: CACCCGUGCAAAAAUGCAGGGGUCUAAAACUGAGCGGAUAACCUCUCUAUGG
RNA 2: GGGAAUGGAUCCACAUCUACGAAUUCGUACCACUAGAGAGCGUUAUCCGCUCACCGAGAUCGGAAGAGCACACGU
B18: target 1 insA 3' of 22,insA 3' of 21 (mixed)
RNA 1: CACCCGUGCAAAAAUGCAGGGGUCUAAAACUGAGCGGAUAACCUCUCUAUGG
RNA 2: GGGAAUGGAUCCACAUCUACGAAUUCGUACACAAUAGAGAGGUUAUCCGCUCACCGAGAUCGGAAGAGCACACGU
B19: target 1 A1G,C6A (mixed)
RNA 1: CACCCGUGCAAAAAUGCAGGGGUCUAAAACUGAGCGGAUAACCUCUCUAUGG
RNA 2: GGGAAUGGAUCCACAUCUACGAAUUCGUACCAUAGAGAGGUUAUCAGCUCGCCGAGAUCGGAAGAGCACACGU
B20: target 1 insC 3' of 13,insC 3' of 11 (mixed)
RNA 1: CACCCGUGCAAAAAUGCAGGGGUCUAAAACUGAGCGGAUAACCUCUCUAUGG
RNA 2: GGGAAUGGAUCCACAUCUACGAAUUCGUACCAUAGAGAGCGUCUAUCCGCUCACCGAGAUCGGAAGAGCACACGU
B21: target 1 insC 3' of 17,insA 3' of 12 (mixed)
RNA 1: CACCCGUGCAAAAAUGCAGGGGUCUAAAACUGAGCGGAUAACCUCUCUAUGG
RNA 2: GGGAAUGGAUCCACAUCUACGAAUUCGUACCAUAGCAGAGGAUUAUCCGCUCACCGAGAUCGGAAGAGCACACGU
B22: target 1 U10G,U11A (mixed)
RNA 1: CACCCGUGCAAAAAUGCAGGGGUCUAAAACUGAGCGGAUAACCUCUCUAUGG
RNA 2: GGGAAUGGAUCCACAUCUACGAAUUCGUACCAUAGAGAGGAGAUCCGCUCACCGAGAUCGGAAGAGCACACGU
B23: target 1 U10C,U11C (mixed)
RNA 1: CACCCGUGCAAAAAUGCAGGGGUCUAAAACUGAGCGGAUAACCUCUCUAUGG
RNA 2: GGGAAUGGAUCCACAUCUACGAAUUCGUACCAUAGAGAGGCCAUCCGCUCACCGAGAUCGGAAGAGCACACGU
B24: target 1 insA 3' of 13,insA 3' of 12 (mixed)
RNA 1: CACCCGUGCAAAAAUGCAGGGGUCUAAAACUGAGCGGAUAACCUCUCUAUGG
RNA 2: GGGAAUGGAUCCACAUCUACGAAUUCGUACCAUAGAGAGAGAUUAUCCGCUCACCGAGAUCGGAAGAGCACACGU
B25: target 1 del3,del4 (mixed)
RNA 1: CACCCGUGCAAAAAUGCAGGGGUCUAAAACUGAGCGGAUAACCUCUCUAUGG
RNA 2: GGGAAUGGAUCCACAUCUACGAAUUCGUACCAUAGAGAGGUUAUCCGCACCGAGAUCGGAAGAGCACACGU
B26: target 1 del1,del3 (mixed)
RNA 1: CACCCGUGCAAAAAUGCAGGGGUCUAAAACUGAGCGGAUAACCUCUCUAUGG
RNA 2: GGGAAUGGAUCCACAUCUACGAAUUCGUACCAUAGAGAGGUUAUCCGCCCCGAGAUCGGAAGAGCACACGU
B27: target 1 insC 3' of 17,insU 3' of 13 (mixed)
RNA 1: CACCCGUGCAAAAAUGCAGGGGUCUAAAACUGAGCGGAUAACCUCUCUAUGG
RNA 2: GGGAAUGGAUCCACAUCUACGAAUUCGUACCAUAGCAGAGUGUUAUCCGCUCACCGAGAUCGGAAGAGCACACGU
B28: target 1 C2A,U19G (mixed)
RNA 1: CACCCGUGCAAAAAUGCAGGGGUCUAAAACUGAGCGGAUAACCUCUCUAUGG
RNA 2: GGGAAUGGAUCCACAUCUACGAAUUCGUACCAGAGAGAGGUUAUCCGCUAACCGAGAUCGGAAGAGCACACGU

Biological target: T1, EsCas13d, nuclease-dead
Assay: crRNA (strand 1, pre-loaded); Mg2+; 40 mM Tris-HCl pH 7.5, 150 mM NaCl, 6 mM MgCl2, 1 mM DTT, 0.1% Tween-20, 0.2 mg/ml BSA; 25 C; 10 min per concentration, then washed
Details: tags: His6-TwinStrep-SUMO cleaved; N-terminal SNAP kept (SNAP-Surface 488); label: 3' end held by stalled T7 RNA polymerase

Compared with B1, B2 is 2.1-fold lower in Kd: 15.6 ± 1.3 nM for the first, 7.3 ± 0.6 nM for the second.

First: B3
Second: B4
The Kd of the first is 1.9-fold higher: 26.3 ± 2.5 nM for the first, 13.8 ± 0.7 nM for the second. The second binds more tightly here.

First: B5
Second: B6
The Kd of the first is 2.4-fold lower: 11.3 ± 0.8 nM for the first, 26.9 ± 2.3 nM for the second. The first binds more tightly here.

First: B7
Second: B8
The Kd of the first is 3.6-fold higher: 47 ± 12 nM for the first, 13 ± 0.9 nM for the second.

B9 and B10 are within error of each other in Kd: 21.3 ± 2.1 nM for the first, 23 ± 6 nM for the second.

B11 and B12 are within error of each other in Kd: 18.9 ± 1.4 nM for the first, 19.1 ± 1.8 nM for the second.

First: B13
Second: B14
The Kd of the first is 1.8-fold higher: 14.3 ± 1 nM for the first, 8.1 ± 0.5 nM for the second.

B15 and B16 are within error of each other in Kd: 39 ± 6 nM for the first, 32 ± 6 nM for the second.

First: B17
Second: B18
The Kd of the first is 2.2-fold lower: 7.2 ± 0.6 nM for the first, 16.2 ± 0.9 nM for the second.

Compared with B19, B20 is 2-fold higher in Kd: 7 ± 0.35 nM for the first, 14.2 ± 1 nM for the second.

Compared with B21, B22 is 2.6-fold lower in Kd: 32.9 ± 2.7 nM for the first, 12.9 ± 1 nM for the second. The second binds more tightly here.

Going from B23 to B24, the Kd falls from 24.7 ± 2.9 nM to 11.8 ± 0.8 nM (2.1-fold).

Going from B25 to B26, the Kd rises from 14.4 ± 1.2 nM to 45 ± 13 nM (3.1-fold). The first binds more tightly here.

B27 and B28 are within error of each other in Kd: 80 ± 40 nM for the first, 48 ± 5 nM for the second.
